Results published in patent US20220135701A1 (Genentech, published 2022).
Where a chain is given by its changes, count along the chain named. Names may count otherwise. Blank lines part the entries; values can stand above or below the binder they belong to.

Biological target: T1, human MerTK (human, UniProt Q12866 26-499)
T1 construct: also called HuMER
T1 sequence: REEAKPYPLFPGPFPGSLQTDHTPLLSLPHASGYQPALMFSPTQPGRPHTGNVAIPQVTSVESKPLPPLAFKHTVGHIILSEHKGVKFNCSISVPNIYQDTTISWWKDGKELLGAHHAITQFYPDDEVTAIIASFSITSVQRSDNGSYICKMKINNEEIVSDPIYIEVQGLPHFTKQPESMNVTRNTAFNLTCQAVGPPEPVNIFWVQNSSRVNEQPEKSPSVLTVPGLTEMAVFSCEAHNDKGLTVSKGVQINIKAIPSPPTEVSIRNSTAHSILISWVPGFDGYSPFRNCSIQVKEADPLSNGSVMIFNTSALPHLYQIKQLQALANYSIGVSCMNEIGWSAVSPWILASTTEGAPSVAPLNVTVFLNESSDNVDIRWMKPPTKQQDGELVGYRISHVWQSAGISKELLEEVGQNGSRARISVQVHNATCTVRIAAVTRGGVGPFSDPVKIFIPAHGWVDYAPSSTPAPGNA
Assay: SPR BIAcore T200, Ab captured, 37C
Procedure: Each humanized mutation variant was subject to BIAcore analysis to determine the important rabbit residues for binding and stability. Binding affinity determinations were obtained using Surface Plasmon Resonance (SRP) measurements from a BIAcore™-T200 instrument. Briefly, each humanized mutation variant antibody was captured to achieve approximately 100 RU (Response Units). Then, 3-fold serial dilutions of human MerTK (0.4 nM to 100 nM) diluted in HBS-EP buffer (0.01M HEPES pH 7.4, 0.15M NaCl, 3 mM EDTA and 0.05% v/v surfactant P20) was injected into the BIAcore™-T200 instrument at 37° C. with a flow rate of 30 μl/min. Association rates (kₒₙ) and dissociation rates (koff) were calculated using a simple one-to-one Langmuir binding model (BIAcore T200 evaluation software version 2.0). The equilibrium dissociation constant (KD) was calculated as the ratio koff/kₒₙ.

Kd: 14.9 nM
B1: h10C3.V1 HC F91Y (antibody, name in Kabat numbering, V domains shown)
VH: EQQLVESGGGLVQPGGSLRLSCAASGFSLSGYTMGWVRQAPGKGLEYIGVISSGGTTYYTNWAKGRFTISKDSSKNTVYLQMGSLRAEDMAVYYCARVAFTAYGGGGFPTLHRLDLWGQGTLVTVSS
VL: DQVLTQSPDSLAVSLGERATINCQSSESVYNNDYLAWYQQKPGQPPKLLIYSASTLASGVPDRFSGSGSGTDFTLTISSLQAEDVAVYYCAGGYLGNNVFGGGTKVEIK
notes: Framework variant of h10C3.v1 (human IgG1)

Kd: 17.1 nM
B2: h10C3.V1 LC Q2I (antibody, human IgG1, name in Kabat numbering, V domains shown)
VH: B1 VH with Y94F
VL: B1 VL with Q2I
notes: as for B1

Kd: 30.2 nM
B3: h10C3.V1 HC G49S (antibody, human IgG1, name in Kabat numbering, V domains shown)
VH: B1 VH with G49S, Y94F
VL: B1 VL
notes: as for B1

Kd: 12.5 nM
B4: h10C3.V1 HC Q2V (antibody, human IgG1, name in Kabat numbering, V domains shown)
VH: B1 VH with Q2V, Y94F
VL: B1 VL
notes: as for B1

Kd: 15 nM
B5: h10C3.V1 HC S73N (antibody, human IgG1, name in Kabat numbering, V domains shown)
VH: B1 VH with S73N, Y94F
VL: B1 VL
notes: as for B1

Kd: 17.1 nM
B6: h10C3.V1 HC I48V (antibody, human IgG1, name in Kabat numbering, V domains shown)
VH: B1 VH with I48V, Y94F
VL: B1 VL
notes: as for B1

Kd: 12.3 nM
B7: h10C3.V1 LC L4M (antibody, human IgG1, name in Kabat numbering, V domains shown)
VH: B1 VH with Y94F
VL: B1 VL with L4M
notes: as for B1

Kd: 20 nM
B8: h10C3.V1 HC K71R (antibody, human IgG1, name in Kabat numbering, V domains shown)
VH: B1 VH with K71R, Y94F
VL: B1 VL
notes: as for B1

Kd: 7.4 nM
B9: h10C3.V1 HC V78L (antibody, human IgG1, name in Kabat numbering, V domains shown)
VH: B1 VH with V78L, Y94F
VL: B1 VL
notes: as for B1

Kd: 6.4 nM
B10: h10F7.V1 HC F91Y (antibody, name in Kabat numbering, V domains shown)
VH: EQQLVESGGGLVQPGGSLRLSCAVSGFSLSGYAMSWVRQAPGKGLEYIGVISSSGSSYYPSWAKGRFTISKDSSKNTVYLQMGSLRAEDMAVYYCARVQFYVGYAVYGYGIIDRLDLWGQGTLVTVSS
VL: DAVLTQSPDSLAVSLGERATINCQSSKSVYNNNWLSWYQQKPGQPPKLLIYRASTLESGVPDRFSGSGSGTDFTLTISSLQAEDVAVYFCAGGYSSSSSANAFGGGTKVEIK
notes: Framework variant of h10F7.v1 (human IgG1)

Kd: 6.2 nM
B11: h10F7.V1 LC L4M (antibody, human IgG1, name in Kabat numbering, V domains shown)
VH: B10 VH with Y94F
VL: B10 VL with L4M
notes: as for B10

Kd: 5.9 nM
B12: h10F7.V1 LC A2I (antibody, human IgG1, name in Kabat numbering, V domains shown)
VH: B10 VH with Y94F
VL: B10 VL with A2I
notes: as for B10

Kd: 5.9 nM
B13: h10F7.V1 HC Q2V (antibody, human IgG1, name in Kabat numbering, V domains shown)
VH: B10 VH with Q2V, Y94F
VL: B10 VL
notes: as for B10

Kd: 15.3 nM
B14: h10F7.V1 HC K71R (antibody, human IgG1, name in Kabat numbering, V domains shown)
VH: B10 VH with K71R, Y94F
VL: B10 VL
notes: as for B10

Kd: 8.8 nM
B15: h10F7.V1 LC F87Y (antibody, name in Kabat numbering, V domains shown)
VH: B10 VH with Y94F
VL: B10 VL with F89Y
notes: as for B10

Kd: 9.5 nM
B16: h10F7.V1 HC G49S (antibody, human IgG1, name in Kabat numbering, V domains shown)
VH: B10 VH with G49S, Y94F
VL: B10 VL
notes: as for B10

Kd: 9.3 nM
B17: h10F7.V1 HC I48V (antibody, human IgG1, name in Kabat numbering, V domains shown)
VH: B10 VH with I48V, Y94F
VL: B10 VL
notes: as for B10

Kd: 7.6 nM
B18: h10F7.V1 HC S73N (antibody, human IgG1, name in Kabat numbering, V domains shown)
VH: B10 VH with S73N, Y94F
VL: B10 VL
notes: as for B10

Kd: 5.1 nM
B19: h10F7.V1 HC V78L (antibody, human IgG1, name in Kabat numbering, V domains shown)
VH: B10 VH with V78L, Y94F
VL: B10 VL
notes: as for B10

Kd: 9.4 nM
B20: h10F7.V1 HC V24A (antibody, human IgG1, name in Kabat numbering, V domains shown)
VH: B10 VH with V24A, Y94F
VL: B10 VL
notes: as for B10

Kd: 11.5 nM
B21: h9E3.FN.V1 HC F91Y (antibody, name in Kabat numbering, V domains shown)
VH: EQQLVESGGGLIQPGGSLRLSCAVSGFSLSSNAMSWVRQAPGKGLEWIGIISSSGSTYSASWAKGRFTISKDSSKNTMYLQMNSLRAEDTAVYYCARVGFFVGYGAYDYGIIHRLDLWGQGTLVTVSS
VL: DAQLTQSPSTLSASVGDRVTITCQSSKSIYNNNWLSWYQQKPGKPPKLLIYDASDLASGVPSRFSGSGSGTEFTLTISSLQPDDFATYYCAGGYSGDSDYAFGGGTKVEIK
notes: Framework variant of h9E3.FN.v1 (human IgG1)

Kd: 10.2 nM
B22: h9E3.FN.V1 HC I48V (antibody, human IgG1, name in Kabat numbering, V domains shown)
VH: B21 VH with I48V, Y94F
VL: B21 VL
notes: as for B21

Kd: 41.3 nM
B23: h9E3.FN.V1 HC K71R (antibody, human IgG1, name in Kabat numbering, V domains shown)
VH: B21 VH with K71R, Y94F
VL: B21 VL
notes: as for B21

Kd: 12.5 nM
B24: h9E3.FN.V1 HC M78L (antibody, human IgG1, name in Kabat numbering, V domains shown)
VH: B21 VH with M78L, Y94F
VL: B21 VL
notes: as for B21

Kd: 12.3 nM
B25: h9E3.FN.V1 HC S73N (antibody, human IgG1, name in Kabat numbering, V domains shown)
VH: B21 VH with S73N, Y94F
VL: B21 VL
notes: as for B21

Kd: 10.2 nM
B26: h9E3.FN.V1 HC Q2V (antibody, human IgG1, name in Kabat numbering, V domains shown)
VH: B21 VH with Q2V, Y94F
VL: B21 VL
notes: as for B21

Kd: 5.6 nM
B27: h9E3.FN.V1 HC G49S (antibody, human IgG1, name in Kabat numbering, V domains shown)
VH: B21 VH with G49S, Y94F
VL: B21 VL
notes: as for B21

Kd: 4.5 nM
B28: h13B4.V1 HC F91Y (antibody, name in Kabat numbering, V domains shown)
VH: EQQLVESGEGLVQPGGSLRLSCAVSGFSLSSYAMGWVRQAPGKGLEWIGIINSYGNTYYANWAKGRFTISRDSSKNTVYLQMGSLRAEDMAVYYCARDPGVSSNLWGPGTLVTVSS
VL: DVQMTQSPSTLSASVGDRVTITCQASQNIYSGLAWYQQKPGKPPKLLIYGASKLASGVPSRFSGSGSGTEFTLTISSLQPDDFATYYCQATYYSSNSVAFGGGTKVEIK
notes: Framework variant of h13B4.v1 (human IgG1)

Kd: 4.2 nM
B29: h13B4.V1 HC P105R (antibody, name in Kabat numbering, V domains shown)
VH: B28 VH with Y94F, P108R
VL: B28 VL
notes: as for B28

Kd: 4.6 nM
B30: h13B4.V1 LC P43A (antibody, human IgG1, name in Kabat numbering, V domains shown)
VH: B28 VH with Y94F
VL: B28 VL with P43A
notes: as for B28

Kd: 5.8 nM
B31: h13B4.V1 HC I48V (antibody, human IgG1, name in Kabat numbering, V domains shown)
VH: B28 VH with I48V, Y94F
VL: B28 VL
notes: as for B28

Kd: 6 nM
B32: h13B4.V1 HC V24A (antibody, human IgG1, name in Kabat numbering, V domains shown)
VH: B28 VH with V24A, Y94F
VL: B28 VL
notes: as for B28

Kd: 3.1 nM
B33: h13B4.V1 HC W47Y (antibody, human IgG1, name in Kabat numbering, V domains shown)
VH: B28 VH with W47Y, Y94F
VL: B28 VL
notes: as for B28

Kd: 4.7 nM
B34: h13B4.V1 HC S73N (antibody, human IgG1, name in Kabat numbering, V domains shown)
VH: B28 VH with S73N, Y94F
VL: B28 VL
notes: as for B28

Kd: 5.6 nM
B35: h13B4.V1 LC V21 (antibody, human IgG1, V domains shown)
VH: B28 VH with Y94F
VL: B28 VL with V2I
notes: Framework variant of h13B4.v1 (human IgG1); read as V2I (V at VL position 2 in v1, I in v16); also called LC V2I

Kd: 4.5 nM
B36: h13B4.V1 HC Q2V (antibody, human IgG1, name in Kabat numbering, V domains shown)
VH: B28 VH with Q2V, Y94F
VL: B28 VL
notes: as for B28

Kd: 9.2 nM
B37: h13B4.V1 HC V78L (antibody, human IgG1, name in Kabat numbering, V domains shown)
VH: B28 VH with V78L, Y94F
VL: B28 VL
notes: as for B28

Kd: 51.5 nM
B38: h13B4.V1 HC G49S (antibody, human IgG1, name in Kabat numbering, V domains shown)
VH: B28 VH with G49S, Y94F
VL: B28 VL
notes: as for B28
